Results from article PMC11435836 (Vaccines, 2024).

Target: the molecule itself
Test: SEC; Superose 6 Increase 10/300 GL; single ENC particles eluted at 11-12 mL, highly aggregated particles at 8-9 mL

B1: encapsulin (ENC) from Thermotoga maritima (natural protein, UniProt Q9WZP2 1-264, looked up)
chain: MEFLKRSFAPLTEKQWQEIDNRAREIFKTQLYGRKFVDVEGPYGWEYAAHPLGEVEVLSDENEVVKWGLRKSLPLIELRATFTLDLWELDNLERGKPNVDLSSLEETVRKVAEFEDEVIFRGCEKSGVKGLLSFEERKIECGSTPKDLLEAIVRALSIFSKDGIEGPYTLVINTDRWINFLKEEAGHYPLEKRVEECLRGGKIITTPRIEDALVVSERGGDFKLILGQDLSIGYEDREKDAVRLFITETFTFQVVNPEALILLK
notes: also called ENC NPs; ENC PNPs; copies: 60
Question: Does B1 bind?
Answer: binds
